Consider 34 molecules from patent publication US20250376529A1 (Amgen, published 2025).

Numbering of substitutions follows the chain as printed.

T1: Rhesus GIPR (rhesus, UniProt F7E1R9 22-466)
T1 sequence: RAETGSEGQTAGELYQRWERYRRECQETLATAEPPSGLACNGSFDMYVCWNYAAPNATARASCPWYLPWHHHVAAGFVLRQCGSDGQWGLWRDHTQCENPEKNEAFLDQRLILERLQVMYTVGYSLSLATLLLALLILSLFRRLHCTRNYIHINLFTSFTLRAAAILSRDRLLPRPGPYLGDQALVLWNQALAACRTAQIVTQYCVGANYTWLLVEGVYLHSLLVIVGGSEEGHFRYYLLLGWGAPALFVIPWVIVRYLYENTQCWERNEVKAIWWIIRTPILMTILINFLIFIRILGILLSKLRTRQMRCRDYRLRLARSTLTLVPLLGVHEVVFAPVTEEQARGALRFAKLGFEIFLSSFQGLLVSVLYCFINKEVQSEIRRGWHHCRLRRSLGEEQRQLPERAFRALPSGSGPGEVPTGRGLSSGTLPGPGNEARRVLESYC

T2: huGIPR ECD (human, UniProt P48546 22-139, limits assumed)
T2 construct: Soluble ECD injected in the MASS-1 assay; also called human GIPR extracellular domain
T2 sequence: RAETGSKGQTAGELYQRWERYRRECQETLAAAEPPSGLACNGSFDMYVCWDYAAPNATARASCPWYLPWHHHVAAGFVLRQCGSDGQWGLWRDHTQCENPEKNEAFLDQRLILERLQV

B1: 2F11.002 (antibody, human IgG1, kappa, N297G, V domains shown)
VH: not shown
VL: DIQMTQSPSSLSASVGDRVTITCQASQDISNYLNWYQQKPGKAPKLLIYDASNLETGVPSRFSGSGSGTDFSLTISSLQPEDFATYYCQQYDILLTFGGGTKVEIKR
B2: 2F11.003 (antibody, human IgG1, kappa, N297G, V domains shown)
VH: QVQLVESGGGVVQPGRSLRLSCAASGFTFSSYGMHWVRQAPGKGLEWVAVIWYDASNKYYADAVKGRFTISSDNSKNTLYLQMNSLRAEDTAVYYCARDRTIFGVVLDYWGQGTLVTVSS
VL: B1 VL
B3: 2F11.004 (antibody, human IgG1, kappa, N297G, V domains shown)
VH: not shown
VL: B1 VL with F83I
B4: 2F11.005 (antibody, human IgG1, kappa, N297G, V domains shown)
VH: not shown
VL: B1 VL with L73F
B5: 2F11.010 (antibody, human IgG1, kappa, N297G, V domains shown)
VH: not shown
VL: B1 VL
B6: 2F11.009 (antibody, human IgG1, kappa, N297G, V domains shown)
VH: B2 VH with A63S, S72R
VL: B1 VL
B7: 2F11.006 (antibody, human IgG1, kappa, N297G, V domains shown)
VH: B2 VH
VL: B1 VL with F83I
B8: 2F11.007 (antibody, human IgG1, kappa, N297G, V domains shown)
VH: B2 VH
VL: B1 VL with L73F
B9: 2F11.008 (antibody, human IgG1, kappa, N297G, V domains shown)
VH: not shown
VL: B1 VL with L73F, F83I
B10: 2C2.005.013 (antibody, human IgG1, lambda, N297G, V domains shown)
VH: QMQVVQSGAEVKKPGASVKVSCKASGYTFTGYYMHWVRQAPGQGLEWMGWINPNSGGTNYAQKFQGRVTMTRDTSISTAYMELSSLRSDDTAVYYCARGGDYVFGTYRPHYYYGMDVWGQGTTVTVSS
VL: not shown
B11: 11C1.008 (antibody, human IgG1, kappa, N297G, V domains shown)
VH: QVPLVQSGAEVKKPGASVKVSCKASGYTFTGYYIHWVRQAPGQGLVWMGWISPNSGDTSYAQKFQDRVTMTRDTSISTAYMELSRLRSDDTAVYFCAREATIFGMLIVPFDYWGQGTLVTVSS
VL: DIVMTQSPDSLSVSLGERATINCKSSQSVLSSSNNKNYLAWYQQKPGQPPNLLIYWTSTRDSGVPDRFSGSGSGTDFTLTINSLQAEDVAVYYCQQYYRTPWTFGQGTKVEIKR
B12: 12H11.005 (antibody, human IgG1, kappa, N297G, V domains shown)
VH: B11 VH with V46E, S55N, D57E, S59N, F95Y
VL: B11 VL
B13: 12H11.006 (antibody, human IgG1, kappa, N297G, V domains shown)
VH: B11 VH with V46E, S55N, S59N, F95Y
VL: B11 VL
B14: 12H11.010 (antibody, human IgG1, kappa, N297G, V domains shown)
VH: B11 VH with V46E, S55N, S59N, F95Y
VL: not shown
B15: 12H11.007 (antibody, human IgG1, kappa, N297G, V domains shown)
VH: B11 VH with V46E, S55Q, S59N, F95Y, A97T
VL: B11 VL
B16: 12H11.011 (antibody, human IgG1, kappa, N297G, V domains shown)
VH: B11 VH with V46E, S55Q, S59N, F95Y
VL: not shown
B17: 12H11 (antibody, human IgG1, kappa, N297G, V domains shown)
VH: B11 VH with V46E, S55N, S59N, F95Y, A97T
VL: B11 VL
B18: 12H11.012 (antibody, human IgG1, kappa, N297G, V domains shown)
VH: B11 VH with V46E, S55N, D57E, S59N, F95Y
VL: not shown
B19: 12H11.003 (antibody, human IgG1, kappa, N297G, V domains shown)
VH: B11 VH with V46E, S55Q, S59N, F95Y
VL: B11 VL
B20: 12H11.009 (antibody, human IgG1, kappa, N297G, V domains shown)
VH: B11 VH with V46E, S55Q, D57E, S59N, F95Y
VL: not shown
B21: 12H11.008 (antibody, human IgG1, kappa, N297G, V domains shown)
VH: B11 VH with V46E, S55N, D57E, S59N, F95Y, A97T
VL: B11 VL
B22: 4H9.004.003 (antibody, human IgG1, kappa, N297G, V domains shown)
VH: not shown
VL: DIQMTQSPSSLSASVGDRVTITCRASQGIRNELGWYQQKPGKAPKLLIYGASSLQSGVPSRFSGSGSGTEFTLTISSLQPEDFVTYYCLQHNSYPFTFGQGTKVDVKR
B23: 17B11.002.001 (antibody, human IgG1, lambda, N297G, V domains shown)
VH: QMQLVQSGAEVKKPGASVKVSCKASGYTFTSYDINWVRQATGQGLEWMGWMNPNSGGTGYAQKFQGRVTMTRDTSISTAYMELSSLRSQDTAVYYCARGGDYVWGSYRPYYYYYGMDVWGQGTTVTVSS
VL: QSVLTQPPSVSAAPGQKVTISCSGSSSNIGNNYVSWYQQLPGTAPKLLIYDNNKRPSGIPDRFSGSKSGTSATLGITGLQTGDEADYYCGTWDSSLSAVVFGGGTKLTVLG
B24: 17B11.002.004 (antibody, human IgG1, lambda, N297G, V domains shown)
VH: B23 VH with T41P, Q89D
VL: B23 VL with G75A, W92F, D93E
B25: 17B11.002 (antibody, human IgG1, lambda, N297G, V domains shown)
VH: B23 VH with G57N
VL: B23 VL with Q38E, L40F
B26: 17B11.002.002 (antibody, human IgG1, lambda, N297G, V domains shown)
VH: B23 VH with G57N
VL: B23 VL
B27: 17B11.002.003 (antibody, human IgG1, lambda, N297G, V domains shown)
VH: B23 VH
VL: B23 VL with Q38E, L40F
B28: 17B11.002.006 (antibody, human IgG1, lambda, N297G, V domains shown)
VH: B23 VH with T41P, G57N, Q89D
VL: B23 VL with G75A
B29: 17B11.002.005 (antibody, human IgG1, lambda, N297G, V domains shown)
VH: B23 VH
VL: B23 VL with G75A
B30: 17B11.002.007 (antibody, human IgG1, lambda, N297G, V domains shown)
VH: B23 VH with W104F
VL: B23 VL
B31: 17B11.002.008 (antibody, human IgG1, lambda, N297G, V domains shown)
VH: B23 VH with T41P, Q89D, W104F
VL: B23 VL with G75A, W92F, D93E
B32: 2A11.003 (antibody, human IgG1, kappa, N297G, V domains shown)
VH: QVQLVESGGGVVQPGRSLRLSCAASGFSFSSYGMHWVRQAPGKGLEWVAVIWYDGSNKYYEDSVKGRFTISRDNSKNTLFLQVNSLRAEDTAVYYCARGITIFGHGFEYWGQGTLVTVSS
VL: EIVLTQSPGTLSLSPGERATLSCRASQIFTSTYLAWYQQKPGQAPRLLIYGASSRATGIPDRFSGSGSGTDFTLTISRLEPEDFAVYYCQQYGSSPRFGQGTRLEIKR
notes: also called iPS:335965; iPS:335967
B33: 2A11.005 (antibody, human IgG1, kappa, N297G, V domains shown)
VH: B32 VH with G55A
VL: B32 VL
notes: also called iPS:361165; iPS:361167
B34: 2A11.004 (antibody, human IgG1, kappa, N297G, V domains shown)
VH: B32 VH with S63A
VL: B32 VL
notes: also called iPS:361158; iPS:361160

The first assay addresses T1, Rhesus GIPR. Put plainly: cell-based or functional assay.
Take B1: the “Rhesus GIPR CAMP Assay (Conc. mAb @ 60% Inhibition in nM)” value amounted to 40 nM.
Still for that read-out and setting: in the case of B2 it was 1.79 nM.
For the molecule B3, the “Rhesus GIPR CAMP Assay (Conc. mAb @ 60% Inhibition in nM)” value was found to be 35.5 nM.
The same measure, in the same setting: in the case of B4 it was 68.6 nM; in that of B5, 8.24 nM.
For the molecule B6, the “Rhesus GIPR CAMP Assay (Conc. mAb @ 60% Inhibition in nM)” value is 36.9 nM.
Consider B7, for which the “Rhesus GIPR CAMP Assay (Conc. mAb @ 60% Inhibition in nM)” value was found to be 1.3 nM.
Same read-out and setting: as for B8, the figure is 1.82 nM; as for B9, 57.4 nM.
For B10, the “Rhesus GIPR CAMP Assay (Conc. mAb @ 60% Inhibition in nM)” value was determined as 1.23 nM.
On to B11, for which the “Rhesus GIPR CAMP Assay (Conc. mAb @ 60% Inhibition in nM)” value came to 0.43 nM.
B12: the “Rhesus GIPR CAMP Assay (Conc. mAb @ 60% Inhibition in nM)” value worked out at 0.61 nM.
For the molecule B13, the “Rhesus GIPR CAMP Assay (Conc. mAb @ 60% Inhibition in nM)” value was determined as 0.59 nM.
As for B14, the “Rhesus GIPR CAMP Assay (Conc. mAb @ 60% Inhibition in nM)” value was determined as 0.71 nM.
As for B15, the “Rhesus GIPR CAMP Assay (Conc. mAb @ 60% Inhibition in nM)” value amounted to 0.56 nM.
In the case of B16, the “Rhesus GIPR CAMP Assay (Conc. mAb @ 60% Inhibition in nM)” value came to 0.47 nM.
Regarding B17, the “Rhesus GIPR CAMP Assay (Conc. mAb @ 60% Inhibition in nM)” value was determined as 0.79 nM.
The same measure, in the same setting: as for B18, the figure is 0.57 nM; as for B19, 0.6 nM.
For the molecule B20, the “Rhesus GIPR CAMP Assay (Conc. mAb @ 60% Inhibition in nM)” value came to 0.6 nM.
Turning to B21, the “Rhesus GIPR CAMP Assay (Conc. mAb @ 60% Inhibition in nM)” value was determined as 0.56 nM.
Take B22: the “Rhesus GIPR CAMP Assay (Conc. mAb @ 60% Inhibition in nM)” value amounted to 0.5 nM.
Same read-out and setting: in the case of B23 it was 0.29 nM.
B24: the “Rhesus GIPR CAMP Assay (Conc. mAb @ 60% Inhibition in nM)” value came out at 0.17 nM.
Still for that read-out and setting: as for B25, the figure is 0.21 nM; as for B26, 0 nM; as for B27, 0.08 nM.
On the same count and under the same terms, in the case of B28 it was 0 nM; in that of B29, 0.08 nM.
On to B30, for which the “Rhesus GIPR CAMP Assay (Conc. mAb @ 60% Inhibition in nM)” value is 0.9 nM.
As for B31, the “Rhesus GIPR CAMP Assay (Conc. mAb @ 60% Inhibition in nM)” value is 7.89 nM.

The target in another assay is T2, huGIPR ECD. The assay is described as follows: SPR (MASS-1), captured mAb.
Turning to B32, the binding result is on record as “no binding (tested: 200 nM huGIPR ECD)”.
B33: the binding result is recorded as “no binding (tested: 200 nM huGIPR ECD)”.
With B34, the binding result is on record as “no binding (tested: 200 nM huGIPR ECD)”.
